Results: US7256259 (WISCONSIN ALUMNI RESEARCH FOUNDATION, dated 2007)
Values belong to the binder of their own block, whether it stands above or below them. Where no end group is shown, it is not given here. [ ]: non-standard residue; d: D form. The star is where a group is joined. Lys(N3) = [N-]=[N+]=NCCCC[C@H](N)C(=O)O; N3 = azido group, [N-]=[N+]=N*; PEG = not defined here

Target: T1, S-protein (UniProt P61823 47-150)
T1 construct: also called purified S-protein; commercial S-protein (Sigma Chemical)
T1 sequence (looked up): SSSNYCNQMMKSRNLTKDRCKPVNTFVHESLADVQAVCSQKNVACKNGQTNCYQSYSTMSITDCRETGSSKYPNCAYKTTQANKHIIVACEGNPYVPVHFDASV
Experiment: S-protein incubated on a glass slide with immobilized azido-S15; detected by activity assay and immunostaining
Protocol: An amine-derivatized glass slide was treated with an excess of PEG having succinimidyl ester termini followed by diphenylphosphinomethanethiol resulting in a surface-bound phosphinothioester, as illustrated in Scheme 2. It is believed that the PEG layer (Mr) 3,400) prevented the non-specific attachment of protein to the glass surface. Serial dilutions of (N_3)Lys1 S15 and (N_3)Lys1 S15 were spotted on this phosphinothioester-derivatized slide. The peptide concentrations were 5.64 µM-56.4 pM for (N_3)Lys1 S15 and 4.38 µM-43.8 pM for (N_3)Lys1 S15. Afterwards, S-protein was spotted on the slide, which was washed with buffer. If S15 was successfully immobilized to the slide through the Staudinger ligation, the S-protein would bind to the immobilized S15 resulting in immobilized RNase S'.
Two types of assays were used to detect the presence of immobilized RNase S'. First, the ribonucleolytic activity of each spot was determined with a fluorogenic substrate. […]
RNase S' attached to the plate was visualized by immunostaining. […] RNase S' was detected by using a Fluorinate SI fluorescence scanner (Molecular Dynamics). (See FIG. 1A) The quantity of immobilized protein was determined with IMAGEQUANT densitometry software (Molecular Dynamics) and a standard curve generated by spotting various concentrations of Alexa Fluor® 488-conjugated secondary antibody.

- binding result: binds
B1: N3-PEG-S15 (peptide)
peptide: {N3-PEG}-KETAAAKFERQHMDS
modifications: reading uncertain
notes: Synthetic S15 (first 15 residues of S-peptide) carrying N3-PEG at its N-terminus; In the assay it was immobilized on a phosphinothioester-derivatized glass slide; also called azido-S15; azido-peptide (main-chain azide)

- binding result: binds
Binder: [Lys(N3)]ETAAAKFERQHMDS (also called azido-S15) [(N3)Lys1 S15]
